Where a chain is given by its changes, count along the chain named.
B1: IgG1-EpCAM-323-A3-FEAR (antibody)
heavy: QIQLVQSGPELKKPGETVKISCKASGYTFTNYGMNWVRQASGEGLKWMGWINTYTGEPTYGEDFKGRFAFSLETSASTAYLQINNLKNEDTATYFCARFGNYVDYWGQGTTLTVSSASTKGPSVFPLAPSSKSTSGGTAALGCLVKDYFPEPVTVSWNSGALTSGVHTFPAVLQSSGLYSLSSVVTVPSSSLGTQTYICNVNHKPSNTKVDKRVEPKSCDKTHTCPPCPAPEFEGGPSVFLFPPKPKDTLMISRTPEVTCVVVAVSHEDPEVKFNWYVDGVEVHNAKTKPREEQYNSTYRVVSVLTVLHQDWLNGKEYKCKVSNKALPAPIEKTISKAKGQPREPQVYTLPPSREEMTKNQVSLTCLVKGFYPSDIAVEWESNGQPENNYKTTPPVLDSDGSFFLYSRLTVDKSRWQQGNVFSCSVMHEALHNHYTQKSLSLSPG
light: DIVMTQAAFSNPVTLGTSASISCRSSKNLLHSNGITYLYWYLQKPGQSPHLLIYQMSNLASGVPDRFSSSGSGTDFTLRISRVEAEDVGVYYCAQNLEIPRTFGGGTKLEIKRTVAAPSVFIFPPSDEQLKSGTASVVCLLNNFYPREAKVQWKVDNALQSGNSQESVTEQDSKDSTYSLSSTLTLSKADYEKHKVYACEVTHQGLSSPVTKSFNRGEC
notes: also called IgG1-323-A3-FEAR
B2: IgG1-EpCAM-323-A3 (antibody)
heavy: not shown
light: B1 light
notes: Unmodified IgG1 constant region
B3: bsIgG1-EpCAM-A37-FERL/CD137-009-HC7LC2-FEAR (bispecific antibody)
heavy 1: not shown
light 1: EIELTQSPGTLSLSPGERATLSCRASQTISNNYLAWYQQKRGQAPRLLIYAASSRATGIPDRFSGTGSGTDFTLTISRLEPEDFAVYYCAQGELYPRQFGGGTKLEIKRTVAAPSVFIFPPSDEQLKSGTASVVCLLNNFYPREAKVQWKVDNALQSGNSQESVTEQDSKDSTYSLSSTLTLSKADYEKHKVYACEVTHQGLSSPVTKSFNRGEC
heavy 2: EVQLVESGGGLVQPGRSLRLSCTASGFSLNDYWMSWVRQAPGKGLEWVGYIDVGGSLYYAASVKGRFTISRDDSKSIAYLQMNSLKTEDTAVYYCARGGLTYGFDLWGQGTLVTVSSASTKGPSVFPLAPSSKSTSGGTAALGCLVKDYFPEPVTVSWNSGALTSGVHTFPAVLQSSGLYSLSSVVTVPSSSLGTQTYICNVNHKPSNTKVDKRVEPKSCDKTHTCPPCPAPEFEGGPSVFLFPPKPKDTLMISRTPEVTCVVVAVSHEDPEVKFNWYVDGVEVHNAKTKPREEQYNSTYRVVSVLTVLHQDWLNGKEYKCKVSNKALPAPIEKTISKAKGQPREPQVYTLPPSREEMTKNQVSLTCLVKGFYPSDIAVEWESNGQPENNYKTTPPVLDSDGSFFLYSRLTVDKSRWQQGNVFSCSVMHEALHNHYTQKSLSLSPG
light 2: DIVMTQSPSSLSASVGDRVTITCQASEDISSYLAWYQQKPGKAPKRLIYGASDLASGVPSRFSASGSGTDYTFTISSLQPEDIATYYCHYYATISGLGVAFGGGTKVEIKRTVAAPSVFIFPPSDEQLKSGTASVVCLLNNFYPREAKVQWKVDNALQSGNSQESVTEQDSKDSTYSLSSTLTLSKADYEKHKVYACEVTHQGLSSPVTKSFNRGEC
B4: IgG1-EpCAM-A37-FEAR (antibody)
heavy: not shown
light: B3 light 1
B5: bsIgG1-CD137-009-HC7LC2-FEAL/EpCAM-A37-FEAR (bispecific antibody)
heavy 1: B3 heavy 2 with F405L, R409K
light 1: B3 light 2
heavy 2: not shown
light 2: B3 light 1
B6: IgG1-EpCAM-C52-FEAR (antibody, V domains shown)
VH: QVQLVQSGAEVKKPGASVKVSCKASGGTFSSYAISWVRQAPGQGLEWMGGIVPIFGTANYAQKFQGRVTITADESTSTAYMELSSLRSEDTAVYYCARDPFLHYWGQGTLVTVSS
VL: EIELTQSPGTLSLSPGERATLSCRASQSVSSSYLAWYQQKPGQAPRLLIYGASSRATGIPDRFSGSGSGTDFTLTISRLEPEDFAVYYCAQGELYPRQFGGGTKLDIKR
notes: The running text prints C52 as 052; also called IgG1-EpCAM-052-FEAR
B7: IgG1-EpCAM-UBS-54-FEAR (antibody, V domains shown)
VH: B6 VH with A16S, K19R, V52I
VL: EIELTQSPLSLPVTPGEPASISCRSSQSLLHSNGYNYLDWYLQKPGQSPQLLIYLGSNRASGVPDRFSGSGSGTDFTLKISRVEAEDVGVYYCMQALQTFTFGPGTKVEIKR

Assays:
[1] = target: T1, recombinant human EpCAM (R&D systems, cat no 9277-EP) (human, UniProt P16422 24-265); assay: BLI classical sandwich cross-block; human EpCAM held by immobilized first antibody IgG1-EpCAM-A37-FEAR (competitor); second antibody 10 µg/mL in solution
T1 construct: also called human EpCAM extracellular domain
T1 sequence: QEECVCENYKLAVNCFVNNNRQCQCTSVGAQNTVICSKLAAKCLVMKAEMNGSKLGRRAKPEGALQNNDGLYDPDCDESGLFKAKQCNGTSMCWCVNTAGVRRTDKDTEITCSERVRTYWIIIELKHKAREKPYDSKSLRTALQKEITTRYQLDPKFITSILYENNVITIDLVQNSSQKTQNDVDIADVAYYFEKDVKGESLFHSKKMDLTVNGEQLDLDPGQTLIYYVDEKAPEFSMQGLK

[2] = target: T1, recombinant human EpCAM (R&D systems, …); assay: BLI classical sandwich cross-block; human EpCAM held by immobilized first antibody IgG1-EpCAM-C52-FEAR (competitor); second antibody 10 µg/mL in solution
[3] = target: T1, recombinant human EpCAM (R&D systems, …); assay: BLI classical sandwich cross-block; human EpCAM held by immobilized first antibody IgG1-EpCAM-323-A3-FEAR (competitor); second antibody 10 µg/mL in solution
[4] = target: T1, recombinant human EpCAM (R&D systems, …); assay: BLI classical sandwich cross-block; human EpCAM held by immobilized first antibody IgG1-EpCAM-UBS-54-FEAR (competitor); second antibody 10 µg/mL in solution
[5] = target: T2, full length mouse EpCAM on CHO-S cells (mouse, UniProt Q99JW5 24-315); assay: flow cytometry on CHO-S cells transfected with mouse EpCAM
T2 sequence: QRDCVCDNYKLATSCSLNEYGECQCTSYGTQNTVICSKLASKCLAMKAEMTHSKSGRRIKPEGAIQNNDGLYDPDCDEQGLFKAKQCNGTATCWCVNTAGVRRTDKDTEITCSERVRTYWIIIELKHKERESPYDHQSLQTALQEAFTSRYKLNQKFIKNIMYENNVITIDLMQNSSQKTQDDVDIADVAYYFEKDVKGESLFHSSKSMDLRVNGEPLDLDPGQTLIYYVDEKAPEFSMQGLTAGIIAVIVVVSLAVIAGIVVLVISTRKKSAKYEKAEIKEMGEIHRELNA

[6] = target: T3, full length cynomolgus monkey EpCAM on CHO-S cells (cynomolgus monkey, UniProt Q1WER1 24-314 (rhesus entry)); assay: flow cytometry on CHO-S cells transfected with cynomolgus monkey EpCAM
T3 sequence: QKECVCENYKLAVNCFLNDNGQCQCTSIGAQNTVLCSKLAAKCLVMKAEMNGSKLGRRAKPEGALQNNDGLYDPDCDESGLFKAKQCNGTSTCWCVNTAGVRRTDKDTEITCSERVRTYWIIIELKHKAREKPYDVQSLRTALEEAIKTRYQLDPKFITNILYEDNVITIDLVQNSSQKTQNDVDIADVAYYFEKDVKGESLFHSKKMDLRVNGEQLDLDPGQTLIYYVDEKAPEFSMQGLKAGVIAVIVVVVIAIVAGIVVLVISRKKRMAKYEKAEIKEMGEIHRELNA

[7] = target: human 4-1BB (CD137) on cells (human, UniProt Q07011 24-255); assay: cell-based or functional assay
Sequence of human 4-1BB (CD137) on cells (Q07011 24-255): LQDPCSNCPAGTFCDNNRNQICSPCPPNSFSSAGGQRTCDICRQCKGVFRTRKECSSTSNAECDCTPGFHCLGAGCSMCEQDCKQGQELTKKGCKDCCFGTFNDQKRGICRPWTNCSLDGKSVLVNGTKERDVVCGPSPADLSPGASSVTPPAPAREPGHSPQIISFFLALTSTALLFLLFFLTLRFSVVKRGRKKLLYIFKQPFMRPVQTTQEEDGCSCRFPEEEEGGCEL

FcγRIa = target: T4, FcγRIa (human, UniProt P12314 16-288, limits assumed, biotinylated); assay: SPR (Biacore 8K); His-tagged FcγR captured on anti-His chip
T4 construct: Bought His-tagged protein captured on anti-His chip; also called CD64 Protein, Human, Recombinant (His Tag), Biotinylated
T4 sequence (P12314 16-288 limits assumed): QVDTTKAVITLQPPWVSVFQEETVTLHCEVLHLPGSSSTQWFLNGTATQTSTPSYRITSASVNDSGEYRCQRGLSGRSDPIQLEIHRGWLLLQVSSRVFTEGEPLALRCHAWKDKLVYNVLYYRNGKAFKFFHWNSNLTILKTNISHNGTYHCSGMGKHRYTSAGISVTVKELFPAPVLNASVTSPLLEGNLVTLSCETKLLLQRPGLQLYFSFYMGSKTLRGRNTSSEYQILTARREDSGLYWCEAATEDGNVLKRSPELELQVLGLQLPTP

FcγRIIIa-F158 = target: T5, FcγRIIIa-F158 (human, UniProt P08637 17-208); assay: as above
T5 construct: extracellular domain; Bought His-tagged protein
T5 sequence (P08637 17-208): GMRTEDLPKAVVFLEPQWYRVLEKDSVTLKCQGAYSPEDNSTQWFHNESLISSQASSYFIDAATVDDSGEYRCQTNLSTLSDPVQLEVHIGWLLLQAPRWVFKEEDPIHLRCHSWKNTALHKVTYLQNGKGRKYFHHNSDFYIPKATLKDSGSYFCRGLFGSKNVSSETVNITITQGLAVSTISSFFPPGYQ

FcγRIIIa-V158 = target: T6, FcγRIIIa-V158 (human, UniProt P08637 17-208); assay: as above
T6 construct: Bought His-tagged protein
T6 sequence (P08637 17-208 F176V limits assumed): as the sequence (P08637 17-208) above, with F160V counted along it

Binder | corrected association response of the antibody in solution [1] [nm] | corrected association response of the antibody in solution [2] [nm] | corrected association response of the antibody in solution [3] [nm] | corrected association response of the antibody in solution [4] [nm] | binding result [5] | binding result [6] | further results
B1 | -0.02 | -0.02 | 0 | -0.01 | – | – | –
B2 | – | – | – | – | binds | binds | –
B3 | – | – | – | – | – | – | EC50 CD107a GMFI (donor 1) [7]: 0.0503 µg/mL; EC50 CD107a GMFI (donor 2) [7]: 0.03 µg/mL; EC50 CD107a GMFI (donor 3) [7]: 0.0217 µg/mL; EC50 CD107a GMFI (donor 4) [7]: 0.012 µg/mL; EC50 CD107a GMFI (donor 6) [7]: 0.021 µg/mL; EC50 GzmB GMFI (donor 1) [7]: 0.0179 µg/mL; EC50 GzmB GMFI (donor 2) [7]: 0.0176 µg/mL; EC50 GzmB GMFI (donor 3) [7]: 0.0204 µg/mL; EC50 GzmB GMFI (donor 4) [7]: 0.0121 µg/mL; EC50 GzmB GMFI (donor 5) [7]: 0.0201 µg/mL; EC50 GzmB GMFI (donor 6) [7]: 0.0224 µg/mL; binding result (FcγRIa): no binding (tested: 3,000 nM (highest concentration tested)); binding result (FcγRIIIa-F158): no binding (tested: 10,000 nM (highest concentration tested)); binding result (FcγRIIIa-V158): no binding (tested: 10,000 nM (highest concentration tested))
B4 | -0.04 | 0 | -0.01 | 0 | binds | binds | –
B5 | – | – | – | – | – | – | binding result (FcγRIa): no binding (tested: 3,000 nM (highest concentration tested)); binding result (FcγRIIIa-F158): no binding (tested: 10,000 nM (highest concentration tested)); binding result (FcγRIIIa-V158): no binding (tested: 10,000 nM (highest concentration tested))
B6 | -0.03 | -0.02 | -0.01 | 0 | binds | binds | –
B7 | -0.03 | -0.01 | 0 | -0.02 | binds | binds | –

From patent US20230295335A1 (published 2023)
